Laboratory results as given in publication PMC6319605 (Nature microbiology, 2018).

Target: Ubiquitin (Ub-propargylamide activity-based probe) (UniProt P0CG48 1-76, C-terminal propargylamide (Ub-PA), covalently linked to ChlaDUB1)
Test: crystal structure

B1: Chlamydia trachomatis ChlaDUB1 (130-401) (enzyme)
chain: PVKTQEDLLPLVPEQVFVEMYEDMARRQTIEALVPAWDSDIIFKCLCYFHTLYPGLIPLETFPPATIFNFKQKIISILEDKKAVLRGEPIKGPLPICCSKENYRRHLQRTTLLPVFMWYHPTPKTLSDTMQTMKQLAIKGSVGASHWLLVIVDIQARRLVYFDSLYNYVMPPENMKKELQSFAQQLDQVYPAYDSKKFSVKIAAKEVIQRGSGSSCGAWCCQFLHWYLKDPLTDALNDLPVDSVERHENLASFVQACEAAVQDLPELSWPEA
modifications: covalently linked to one Ub molecule through the Ub-propargylamide probe (in the enzymatic S1 site)
binding result: binds
